± gives the standard error. This sample holds only a part of the variants without activity.
B1: glmS ribozyme (parent)
chain: AUAAAAGCGCCAGAACUACAGAAAUGUAGUUGACGAGGAGGAGGUUUAUCGAAUUUUCGGCGGAUGCCUCCAAA

What was measured:
Conditions in all cases: with glucosamine-6-phosphate
glucosamine-6-phosphate [1] = variants of: B1; assay: self-cleavage kobs at 160 uM GlcN6P; higher = faster cleavage; RNA array
Method in brief: (§1)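 Sequenced MiSeq chips were the platform: E. coli RNA polymerase transcribed barcoded ribozyme variants on them in situ, and a hybridised Cy3 probe tracked these at 37 °C. After glucosamine-6-phosphate (40 μM to 10 mM) in HEPES/KCl/Mg(OAc)2 buffer was flowed in, tiles were imaged over ~14 h. Signals normalised to baseline and to non-cleaving reference variants were reduced to per-tile medians and fit to one- or two-exponential decays to obtain kobs. kcat and KM were derived through weighted Michaelis–Menten fits across concentrations.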

glucosamine-6-phosphate [2] = variants of: B1; assay: self-cleavage kobs at 640 uM GlcN6P; higher = faster cleavage; RNA array
Method in brief: as §1

glucosamine-6-phosphate [3] = variants of: B1; assay: self-cleavage kobs at 2500 uM GlcN6P; higher = faster cleavage; RNA array
Method in brief: as §1

glucosamine-6-phosphate [4] = variants of: B1; assay: self-cleavage kobs at 10000 uM GlcN6P; higher = faster cleavage; RNA array
Method in brief: as §1

| Variant | self-cleavage kobs at 160 uM GlcN6P (glucosamine-6-phosphate [1]) [s⁻¹] | self-cleavage kobs at 640 uM GlcN6P (glucosamine-6-phosphate [2]) [s⁻¹] | self-cleavage kobs at 2500 uM GlcN6P (glucosamine-6-phosphate [3]) [s⁻¹] | self-cleavage kobs at 10000 uM GlcN6P (glucosamine-6-phosphate [4]) [s⁻¹] |
| --- | --- | --- | --- | --- |
| A12C U56C | 6.31e-05 ± 1.4e-05 | 0.000455 ± 8.2e-05 | 0.00111 ± 0.00017 | 0.00253 ± 0.00077 |
| G41C G63A | < 1e-05 | < 1e-05 | – | – |
| A42C C58A | < 1e-05 | < 1e-05 | – | < 1e-05 |
| U31C U54A C67G | 3.53e-05 ± 9.2e-06 | 8.75e-05 ± 2.2e-05 | 7.96e-05 ± 1.7e-05 | – |
| C11U U69A | 5.24e-05 ± 1.6e-05 | 0.000191 ± 5.6e-05 | 0.000157 ± 3.2e-05 | 6.31e-05 ± 1.7e-05 |
| G13A G40C C70G | < 1e-05 | < 1e-05 | < 1e-05 | < 1e-05 |
| U46G U56G C70U | 0.000211 ± 5.3e-05 | 0.000436 ± 9.2e-05 | 0.00119 ± 0.00031 | – |
| C8U A14C | < 1e-05 | < 1e-05 | < 1e-05 | < 1e-05 |
| G51C C67G | < 1e-05 | – | – | < 1e-05 |
| A14C A36C U65G | < 1e-05 | < 1e-05 | < 1e-05 | – |
| A14U U30A A33U G51A | < 1e-05 | – | – | – |
| A36U G41A U54G | < 1e-05 | < 1e-05 | – | – |
| C10A A14U A52U C70G | 0.00038 ± 0.00011 | 0.000294 ± 7.4e-05 | 8.93e-05 ± 3.8e-05 | – |
| C50G U55A | 9.39e-05 ± 2.2e-05 | – | 0.000374 ± 0.00012 | – |
| A42C A52C C67G | < 1e-05 | – | – | – |
| A12G G35C | < 1e-05 | < 1e-05 | – | < 1e-05 |
| C10G G38U G41U U49C C50U C70A | < 1e-05 | – | – | < 1e-05 |
| G29U C34U U46G U47G G63A | < 1e-05 | < 1e-05 | < 1e-05 | – |
| G32C A48G G51U | < 1e-05 | < 1e-05 | < 1e-05 | – |
| A39C G40C A52G | < 1e-05 | < 1e-05 | – | – |
| A15C C50G G66U | 5.42e-05 ± 1.8e-05 | – | – | – |
| G13U G41C A42U U65C | < 1e-05 | < 1e-05 | < 1e-05 | – |
| G38A G41A U45C A52G | < 1e-05 | < 1e-05 | – | – |
| G13C A52G C70G | 0.000297 ± 0.00012 | 0.000164 ± 5.2e-05 | 7.21e-05 ± 3e-05 | – |

| Variant | self-cleavage kobs at 160 uM GlcN6P (glucosamine-6-phosphate [1]) [s⁻¹] | self-cleavage kobs at 640 uM GlcN6P (glucosamine-6-phosphate [2]) [s⁻¹] | self-cleavage kobs at 2500 uM GlcN6P (glucosamine-6-phosphate [3]) [s⁻¹] | self-cleavage kobs at 10000 uM GlcN6P (glucosamine-6-phosphate [4]) [s⁻¹] |
| --- | --- | --- | --- | --- |
| G9U G38A | < 1e-05 | < 1e-05 | – | – |
| A6U G44U U55C | < 1e-05 | < 1e-05 | < 1e-05 | – |
| G35C U46A U56A C61U C68U | < 1e-05 | – | < 1e-05 | – |
| C8A G35C G62U | < 1e-05 | < 1e-05 | < 1e-05 | – |
| G9U G40C G51A | < 1e-05 | < 1e-05 | < 1e-05 | – |
| A39U G40A A64G | 0.000419 ± 0.00012 | 0.000775 ± 0.00021 | 0.00738 ± 0.0025 | – |
| A6U C8A C16A | < 1e-05 | – | – | – |
| C8A G59A | < 1e-05 | < 1e-05 | < 1e-05 | < 1e-05 |
| G29C U30C G37C C70G | 9.14e-05 ± 2.9e-05 | 0.000358 ± 0.00011 | 0.000111 ± 3.5e-05 | – |
| U49C C58A G60U | < 1e-05 | < 1e-05 | < 1e-05 | – |
| G9A U30G G37U | < 1e-05 | – | – | – |
| G40A G44U C61A | < 1e-05 | < 1e-05 | – | < 1e-05 |
| U31G G32A | 2.88e-05 ± 1.4e-05 | 0.000366 ± 7.2e-05 | 0.000689 ± 0.00016 | 0.00185 ± 0.00031 |
| G40A G51C | < 1e-05 | < 1e-05 | – | < 1e-05 |
| G7U U55G U57G C61A A64C C68U | < 1e-05 | – | < 1e-05 | – |
| A6U A12C U49C U65G C67G | < 1e-05 | – | – | – |
| G66U U69C | 0.000111 ± 2e-05 | 0.000207 ± 6.9e-05 | 0.000653 ± 0.00016 | – |
| C8A G13C U30C G41U | < 1e-05 | – | < 1e-05 | < 1e-05 |
| G43A U54C U69G | < 1e-05 | < 1e-05 | – | < 1e-05 |
| G41U U65A C68G | < 1e-05 | – | < 1e-05 | – |
| G9U U30G G35U G51A | < 1e-05 | < 1e-05 | – | – |
| G29A A39U G40A | 7.25e-05 ± 2.4e-05 | 0.000163 ± 5.7e-05 | 0.000397 ± 0.0001 | – |
| G29C G43C C70G | < 1e-05 | < 1e-05 | – | – |
| A42G G51C G60U | < 1e-05 | – | – | – |

From the supplement of paper PMC7125110
